Blank lines part the entries; values can stand above or below the substance they belong to.
Key:
[1] = biological target: Macaca fascicularis CD3ε/δ-Fc fusion protein (Macaca fascicularis) (UniProt Q95LI8); experiment: SPR Biacore, ratio against human CD3εδ
[2] = biological target: human CD3 (TCR complex) on primary human T cells or Jurkat cells (human) (UniProt P07766); experiment: flow cytometry, Jurkat E6-1
[3] = biological target: Macaca fascicularis CD3 (TCR complex) on cyno HSC-F cells (Macaca fascicularis) (UniProt Q95LI5); experiment: flow cytometry, cyno HSC-F
[4] = biological target: human CD123 (IL3RA) on cells (human) (UniProt P26951); experiment: cell-based or functional assay
Sequence of human CD123 (IL3RA) on cells (human) (P26951 19-378): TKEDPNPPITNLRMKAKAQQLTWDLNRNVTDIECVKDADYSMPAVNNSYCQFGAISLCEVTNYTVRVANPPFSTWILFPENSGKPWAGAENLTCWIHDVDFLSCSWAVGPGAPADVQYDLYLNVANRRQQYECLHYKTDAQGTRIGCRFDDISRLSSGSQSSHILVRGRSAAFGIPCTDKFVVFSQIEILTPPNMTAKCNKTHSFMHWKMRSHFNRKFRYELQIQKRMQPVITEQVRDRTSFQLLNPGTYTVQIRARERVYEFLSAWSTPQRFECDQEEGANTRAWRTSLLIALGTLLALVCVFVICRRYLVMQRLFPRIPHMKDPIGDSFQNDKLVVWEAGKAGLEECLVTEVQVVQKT

Sequence of human CD3 (TCR complex) on primary human T cells or Jurkat cells (human) (P07766 23-207, one chain of several): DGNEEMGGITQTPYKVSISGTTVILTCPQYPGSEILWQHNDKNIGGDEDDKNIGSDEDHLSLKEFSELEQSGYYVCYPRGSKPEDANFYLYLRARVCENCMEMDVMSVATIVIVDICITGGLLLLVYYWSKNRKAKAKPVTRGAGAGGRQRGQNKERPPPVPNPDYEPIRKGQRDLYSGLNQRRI
Sequence of CODV-Fab 7G3 × I2C (bispecific antibody) (light, part): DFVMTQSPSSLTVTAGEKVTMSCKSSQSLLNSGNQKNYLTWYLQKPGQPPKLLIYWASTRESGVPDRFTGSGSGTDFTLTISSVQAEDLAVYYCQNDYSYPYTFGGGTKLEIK
Sequence of CODV-Fab 7G3 × I2C (bispecific antibody) (heavy, part): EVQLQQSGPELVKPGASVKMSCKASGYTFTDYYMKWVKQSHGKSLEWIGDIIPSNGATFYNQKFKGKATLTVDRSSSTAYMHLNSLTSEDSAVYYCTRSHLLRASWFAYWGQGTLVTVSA
Sequence of Macaca fascicularis CD3 (TCR complex) on cyno HSC-F cells (Macaca fascicularis) (Q95LI5 22-198, one chain of several): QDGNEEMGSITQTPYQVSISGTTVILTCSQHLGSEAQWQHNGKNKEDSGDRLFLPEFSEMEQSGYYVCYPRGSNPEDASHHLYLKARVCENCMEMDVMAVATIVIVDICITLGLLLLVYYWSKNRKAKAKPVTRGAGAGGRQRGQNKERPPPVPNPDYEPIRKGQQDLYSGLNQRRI
Sequence of Macaca fascicularis CD3ε/δ-Fc fusion protein (Macaca fascicularis) (chain, as listed by the source mutant, chain 1 of 2): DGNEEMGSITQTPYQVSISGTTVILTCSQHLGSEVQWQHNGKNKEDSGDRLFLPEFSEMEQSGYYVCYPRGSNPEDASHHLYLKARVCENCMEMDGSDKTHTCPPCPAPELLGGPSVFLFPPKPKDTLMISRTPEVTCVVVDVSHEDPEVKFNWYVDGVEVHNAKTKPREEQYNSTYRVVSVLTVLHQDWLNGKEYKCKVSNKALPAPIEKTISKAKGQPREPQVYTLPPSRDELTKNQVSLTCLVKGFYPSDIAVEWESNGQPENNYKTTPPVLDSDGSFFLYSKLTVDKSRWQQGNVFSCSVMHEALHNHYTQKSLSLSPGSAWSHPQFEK
Sequence of Macaca fascicularis CD3ε/δ-Fc fusion protein (Macaca fascicularis) (Q95LI8 22-105, stated change not applied, chain 2 of 2): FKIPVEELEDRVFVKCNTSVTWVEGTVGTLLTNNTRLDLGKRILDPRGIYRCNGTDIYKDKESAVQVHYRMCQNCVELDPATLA

Ratio KD(cy)/KD(hu) [1]: 5
Substance: SP-34 (antibody)

geometric mean of relative fluorescence intensity (rfu) [2]: 7 rfu
geometric mean of relative fluorescence intensity (rfu) [3]: 1260 rfu
Substance: FN18 (antibody)

Substance: CODV-Fab 7G3 × I2C (bispecific antibody)
Activity EC50 [ng/ml], cytotoxic assay on THP-1 with human T cells [4]: 20 ng/mL

Reference: patent US20210292423A1
